Measured values taken from patent US20220396627A1.

How the values were obtained:
[1] = target: Human Siglec-9-Fc (recombinant human Siglec-9 extracellular domain Q18-G348 fused to human IgG1 Fc) (human); assay: BLI binning, hSiglec-9-Fc on AHC sensor; competitor bound first (row): 2F15
[2] = target: Human Siglec-9-Fc (recombinant human Siglec-9 extracellular domain Q18-G348 fused to human IgG1 Fc) (human); assay: BLI binning, hSiglec-9-Fc on AHC sensor; competitor bound first (row): 9C15
[3] = target: Human Siglec-9-Fc (recombinant human Siglec-9 extracellular domain Q18-G348 fused to human IgG1 Fc) (human); assay: BLI binning, hSiglec-9-Fc on AHC sensor; competitor bound first (row): 9D21
[4] = target: Human Siglec-9-Fc (recombinant human Siglec-9 extracellular domain Q18-G348 fused to human IgG1 Fc) (human); assay: BLI binning, hSiglec-9-Fc on AHC sensor; competitor bound first (row): 12G23
[5] = target: Human Siglec-9-Fc (recombinant human Siglec-9 extracellular domain Q18-G348 fused to human IgG1 Fc) (human); assay: BLI binning, hSiglec-9-Fc on AHC sensor; competitor bound first (row): 12L19
[6] = target: Human Siglec-9-Fc (recombinant human Siglec-9 extracellular domain Q18-G348 fused to human IgG1 Fc) (human); assay: BLI binning, hSiglec-9-Fc on AHC sensor; competitor bound first (row): 12P18
[7] = target: Human Siglec-9-Fc (recombinant human Siglec-9 extracellular domain Q18-G348 fused to human IgG1 Fc) (human); assay: BLI binning, hSiglec-9-Fc on AHC sensor; competitor bound first (row): 13J19
[8] = target: Human Siglec-9-Fc (recombinant human Siglec-9 extracellular domain Q18-G348 fused to human IgG1 Fc) (human); assay: BLI binning, hSiglec-9-Fc on AHC sensor; competitor bound first (row): 13O18
[9] = target: Human Siglec-9-Fc (recombinant human Siglec-9 extracellular domain Q18-G348 fused to human IgG1 Fc) (human); assay: BLI binning, hSiglec-9-Fc on AHC sensor; competitor bound first (row): 3L02 (self)
[10] = target: Human Siglec-9-Fc (recombinant human Siglec-9 extracellular domain Q18-G348 fused to human IgG1 Fc) (human); assay: BLI binning, hSiglec-9-Fc on AHC sensor; competitor bound first (row): 13H10 (printed 13H110)

Chain of Human Siglec-9-Fc (recombinant human Siglec-9 extracellular domain Q18-G348 fused to human IgG1 Fc) (human) (chain, as listed by the source limits assumed): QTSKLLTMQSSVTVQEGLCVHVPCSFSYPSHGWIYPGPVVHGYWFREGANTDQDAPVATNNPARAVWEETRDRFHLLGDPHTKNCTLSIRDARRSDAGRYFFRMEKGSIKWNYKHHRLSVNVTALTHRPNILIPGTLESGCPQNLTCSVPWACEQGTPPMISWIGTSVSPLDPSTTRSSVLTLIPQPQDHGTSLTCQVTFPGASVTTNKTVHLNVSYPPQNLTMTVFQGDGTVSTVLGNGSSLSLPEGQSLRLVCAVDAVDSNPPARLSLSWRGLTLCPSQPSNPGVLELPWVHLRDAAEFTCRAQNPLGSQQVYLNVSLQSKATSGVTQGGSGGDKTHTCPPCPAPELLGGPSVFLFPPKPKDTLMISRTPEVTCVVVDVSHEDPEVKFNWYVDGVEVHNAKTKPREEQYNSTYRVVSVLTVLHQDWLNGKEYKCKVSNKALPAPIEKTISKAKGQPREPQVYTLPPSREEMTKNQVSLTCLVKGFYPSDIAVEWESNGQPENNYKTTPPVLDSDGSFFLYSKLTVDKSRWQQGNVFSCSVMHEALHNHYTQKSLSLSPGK

B1: 3L02 (antibody, V domains shown)
VH: DVQLQESGPGMVKPSQSLSLTCTVTGYSITSGYDWHWIRHFPGNKLEWMGYISYSAGTNYNPSLKSRISITHDTSKNHFFLKLNSVTTEDTATYYCAREGLTAYWYFDVWGTGTTVTVSS
VL: DIVMTQSQKFMSTSVGDRVSVTCKASQTVGTNVAWYQQKPGQSPKPLIYSASYRYSGVPDRFTGSGSGTDFTLTISNVQSEDLAEYFCQQYDSFPLTFGSGTKLEIK
Which results are given for B1?
maximum binding nm shift [1]: 0.099 nm; maximum binding nm shift [2]: 0.14 nm; maximum binding nm shift [3]: 0.188 nm; maximum binding nm shift [4]: 0.031 nm; maximum binding nm shift [5]: -0.053 nm; maximum binding nm shift [6]: 0.214 nm; maximum binding nm shift [7]: 0.085 nm; maximum binding nm shift [8]: 0.091 nm; maximum binding nm shift [9]: 0 nm; maximum binding nm shift [10]: -0.064 nm
